Experimental data reported in article PMC8082267, “Inhibition of the PP2A activity by the histone chaperone ANP32B is long-range allosterically regulated by respiratory cytochrome c” (Redox Biology, 2021).

Key:
Conditions in all cases: both partners purified
[1] = target: T1, full-length ANP32B (ANP32B1-251) (human, UniProt Q92688-1 1-251); assay: ITC; reduced Cc (400 uM stock) injected into ANP32B1-251 (50 uM) in the cell; 10 mM sodium phosphate pH 7.4 with 150 mM NaCl; single binding site
T1 construct: also called Acidic leucine-rich Nuclear Phosphoprotein 32 family member B; source: E. coli BL21 (DE3) pLysS, pET28a(+), purified (Ni-NTA, Superdex 200)
T1 sequence (Q92688 whole entry): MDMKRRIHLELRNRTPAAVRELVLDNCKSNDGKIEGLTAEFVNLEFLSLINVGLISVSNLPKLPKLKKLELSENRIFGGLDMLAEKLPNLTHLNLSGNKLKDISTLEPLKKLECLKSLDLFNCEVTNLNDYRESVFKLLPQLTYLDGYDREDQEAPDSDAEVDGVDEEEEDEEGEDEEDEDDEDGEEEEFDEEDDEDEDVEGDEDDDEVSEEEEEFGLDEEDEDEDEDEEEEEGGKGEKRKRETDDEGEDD

[2] = target: T2, full-length ANP32B (ANP32B_(1-251)), recombinant (human, UniProt Q92688-1 1-251); assay: ITC; high ionic strength: reduced Cc injected into ANP32B_(1-251), 10 mM sodium phosphate pH 7.4 with 150 mM NaCl
T2 construct: cloned by PCR from cDNA (Geneservice, UK) into pET28a(+); source: E. coli BL21 (DE3) pLysS, purified (Ni-NTA, Superdex 200)
T2 sequence (Q92688 whole entry): as above

[3] = target: T2, full-length ANP32B (ANP32B_(1-251)), …; assay: ITC; low ionic strength: 400 μM reduced Cc injected into ANP32B construct in the cell (50 μM ANP32B_(1-251), 40 μM ANP32B_(1-231), 50 μM ANP32B_(1-161)), 10 mM sodium phosphate pH 7.4; models with one or two independent binding sites
[4] = target: T3, ANP32B construct lacking its Nuclear Localization Signal sequence (ANP32B_(1-231)) (human, UniProt Q92688-1 1-231); assay: as above
T3 construct: lacks the 20-amino acid C-end stretch; source: E. coli BL21 (DE3) pLysS, purified (Ni-NTA, Superdex 200)
T3 sequence (Q92688 1-231): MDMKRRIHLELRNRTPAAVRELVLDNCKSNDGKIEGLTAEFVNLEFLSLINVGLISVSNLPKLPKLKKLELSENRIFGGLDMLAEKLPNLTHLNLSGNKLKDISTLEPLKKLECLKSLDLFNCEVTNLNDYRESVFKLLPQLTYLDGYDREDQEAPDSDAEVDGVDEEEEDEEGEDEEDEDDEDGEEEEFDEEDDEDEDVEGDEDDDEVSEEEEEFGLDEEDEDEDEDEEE

Chain of cytochrome c (P99999 2-105): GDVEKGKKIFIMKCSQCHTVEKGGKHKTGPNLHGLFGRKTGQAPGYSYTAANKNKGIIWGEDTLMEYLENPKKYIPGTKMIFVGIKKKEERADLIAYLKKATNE

Row | Binder | Kd [1] | stoichiometry N [1] | stoichiometry N [2] | dH, higher-affinity site (two independent sites) [3] | dH, lower-affinity site (two independent sites) [3] | Kd [4] | dH [4] | stoichiometry N [4]
1 | cytochrome c (natural protein, heme group; kept in the reduced redox state; 15N-labelled in the NMR titrations, cytochrome c, human (the anti-human Cc serum was raised against this recombinant Cc); NMR assignment BMRB 5406 and structure PDB 1J3S are used for it; also called Cc; respiratory cytochrome c; source: E. coli BL21 (DE3), pBTR1 vector also encoding yeast heme lyase, purified (carboxymethyl cellulose ion exchange)) not shown | 9.1 µM | 1.2 | – | – | – | – | – | –
2 | recombinant respiratory cytochrome c (natural protein, heme group (hemeprotein), reduced with sodium ascorbate; 15N-labelled in the HSQC titrations, cytochrome c, human; also called Cc; the hemeprotein) not shown | – | – | 1 | -10.7 kcal/mol | 29.5 kcal/mol | 8 µM | -3.6 kcal/mol | 1.09
